Test results: patent US20170327598A1 (published 2017)
Like-named read-outs stand apart in the source and are kept apart here.

Experiments:
Experiment in all cases: sandwich ELISA, STAT protein coated at 0.5 µg/mL
STAT 5a protein [1] = molecular target: T1, STAT 5a protein (UniProt P42229 1-794, limits assumed)
T1 sequence (looked up): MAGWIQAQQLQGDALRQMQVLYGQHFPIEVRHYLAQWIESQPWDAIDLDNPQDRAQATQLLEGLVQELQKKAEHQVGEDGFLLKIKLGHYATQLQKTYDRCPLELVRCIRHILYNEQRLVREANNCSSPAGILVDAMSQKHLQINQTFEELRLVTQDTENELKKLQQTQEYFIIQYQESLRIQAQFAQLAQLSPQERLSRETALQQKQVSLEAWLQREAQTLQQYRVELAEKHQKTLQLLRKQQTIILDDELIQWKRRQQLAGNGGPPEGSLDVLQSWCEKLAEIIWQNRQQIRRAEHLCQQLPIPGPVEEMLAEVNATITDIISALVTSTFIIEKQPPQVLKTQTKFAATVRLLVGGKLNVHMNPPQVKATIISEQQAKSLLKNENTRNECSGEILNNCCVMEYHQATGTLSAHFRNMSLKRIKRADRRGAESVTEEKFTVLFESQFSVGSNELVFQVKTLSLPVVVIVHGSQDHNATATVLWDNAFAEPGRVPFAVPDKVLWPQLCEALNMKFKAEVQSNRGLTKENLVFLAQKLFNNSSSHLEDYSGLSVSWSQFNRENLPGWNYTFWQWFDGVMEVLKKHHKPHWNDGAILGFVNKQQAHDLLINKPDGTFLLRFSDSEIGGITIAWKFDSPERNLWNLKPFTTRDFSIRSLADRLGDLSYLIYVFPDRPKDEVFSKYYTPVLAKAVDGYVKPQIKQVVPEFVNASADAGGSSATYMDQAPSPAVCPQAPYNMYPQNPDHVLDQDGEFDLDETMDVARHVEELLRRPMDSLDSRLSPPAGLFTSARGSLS

STAT 3 protein [2] = molecular target: T2, STAT 3 protein (UniProt P40763 1-770, limits assumed)
STAT 2 protein [3] = molecular target: T3, STAT 2 protein (UniProt P52630 1-851, limits assumed)
T3 sequence (P52630 whole entry): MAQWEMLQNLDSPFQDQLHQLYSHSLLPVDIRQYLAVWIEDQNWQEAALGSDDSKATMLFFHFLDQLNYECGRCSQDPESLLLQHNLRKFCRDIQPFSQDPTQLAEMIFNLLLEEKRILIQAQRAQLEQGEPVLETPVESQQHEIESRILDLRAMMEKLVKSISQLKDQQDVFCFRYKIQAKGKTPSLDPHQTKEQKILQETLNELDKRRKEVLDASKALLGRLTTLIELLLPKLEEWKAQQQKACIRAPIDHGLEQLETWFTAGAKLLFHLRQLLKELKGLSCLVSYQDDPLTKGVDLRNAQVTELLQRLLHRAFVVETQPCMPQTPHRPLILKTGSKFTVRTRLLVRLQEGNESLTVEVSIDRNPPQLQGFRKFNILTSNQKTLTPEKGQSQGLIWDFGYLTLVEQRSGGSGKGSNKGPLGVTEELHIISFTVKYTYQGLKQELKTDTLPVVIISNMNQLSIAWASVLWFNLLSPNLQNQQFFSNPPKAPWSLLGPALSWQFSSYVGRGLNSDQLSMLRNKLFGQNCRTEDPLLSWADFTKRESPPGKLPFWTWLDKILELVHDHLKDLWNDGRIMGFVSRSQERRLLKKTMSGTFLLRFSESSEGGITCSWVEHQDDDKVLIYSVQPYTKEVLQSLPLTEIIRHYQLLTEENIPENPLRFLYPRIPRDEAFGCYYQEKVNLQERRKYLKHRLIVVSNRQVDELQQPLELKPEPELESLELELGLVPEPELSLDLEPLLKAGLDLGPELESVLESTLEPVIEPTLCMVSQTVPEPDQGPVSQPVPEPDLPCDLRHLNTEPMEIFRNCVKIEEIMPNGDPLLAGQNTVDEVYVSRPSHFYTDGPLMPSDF

STAT 4 protein [4] = molecular target: T4, STAT 4 protein (UniProt Q14765 1-748, limits assumed)
T4 sequence (looked up): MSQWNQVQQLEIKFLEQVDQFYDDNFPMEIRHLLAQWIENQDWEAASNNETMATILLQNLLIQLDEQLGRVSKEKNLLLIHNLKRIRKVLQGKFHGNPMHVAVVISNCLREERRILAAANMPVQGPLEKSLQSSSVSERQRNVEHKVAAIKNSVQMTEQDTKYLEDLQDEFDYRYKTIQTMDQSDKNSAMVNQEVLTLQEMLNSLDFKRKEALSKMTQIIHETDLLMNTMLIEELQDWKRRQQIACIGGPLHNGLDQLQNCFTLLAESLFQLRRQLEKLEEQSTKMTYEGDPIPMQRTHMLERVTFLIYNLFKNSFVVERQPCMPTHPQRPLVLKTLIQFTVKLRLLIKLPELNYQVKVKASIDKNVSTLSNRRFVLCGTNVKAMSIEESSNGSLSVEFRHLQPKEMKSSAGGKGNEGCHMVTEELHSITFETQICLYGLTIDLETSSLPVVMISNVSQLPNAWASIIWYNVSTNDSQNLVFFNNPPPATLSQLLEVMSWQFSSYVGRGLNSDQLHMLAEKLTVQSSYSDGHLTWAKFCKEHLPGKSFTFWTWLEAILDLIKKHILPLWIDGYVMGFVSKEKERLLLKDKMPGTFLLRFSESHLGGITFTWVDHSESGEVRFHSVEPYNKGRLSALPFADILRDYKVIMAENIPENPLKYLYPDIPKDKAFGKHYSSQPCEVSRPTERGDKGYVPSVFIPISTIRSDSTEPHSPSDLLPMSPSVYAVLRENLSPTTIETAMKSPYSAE

STAT 1 protein = molecular target: T5, STAT 1 protein (UniProt P42224 1-750, limits assumed)
T5 sequence (looked up): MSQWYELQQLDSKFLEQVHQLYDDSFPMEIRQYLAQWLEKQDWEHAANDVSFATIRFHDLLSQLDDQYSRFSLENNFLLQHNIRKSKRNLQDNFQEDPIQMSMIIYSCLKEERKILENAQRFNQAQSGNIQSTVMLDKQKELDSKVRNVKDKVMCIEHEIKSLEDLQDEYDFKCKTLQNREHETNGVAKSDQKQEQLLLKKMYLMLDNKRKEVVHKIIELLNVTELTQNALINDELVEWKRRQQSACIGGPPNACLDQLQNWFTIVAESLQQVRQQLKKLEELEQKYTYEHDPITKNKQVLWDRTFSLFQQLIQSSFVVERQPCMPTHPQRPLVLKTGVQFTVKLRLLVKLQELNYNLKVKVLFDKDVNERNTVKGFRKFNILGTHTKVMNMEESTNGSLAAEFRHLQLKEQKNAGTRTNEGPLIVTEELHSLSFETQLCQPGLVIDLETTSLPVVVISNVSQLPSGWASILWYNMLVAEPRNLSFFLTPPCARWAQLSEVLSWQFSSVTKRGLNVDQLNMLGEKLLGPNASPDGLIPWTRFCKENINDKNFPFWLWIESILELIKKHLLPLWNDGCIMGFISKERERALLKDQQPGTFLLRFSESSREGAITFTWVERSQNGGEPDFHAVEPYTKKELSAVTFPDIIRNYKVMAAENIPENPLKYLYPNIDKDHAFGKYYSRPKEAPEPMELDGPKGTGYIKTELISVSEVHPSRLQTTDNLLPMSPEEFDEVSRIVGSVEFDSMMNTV

STAT 5a protein [5] = molecular target: T1, STAT 5a protein; remark: listed apart in the source
STAT 3 protein [6] = molecular target: T2, STAT 3 protein; remark: listed apart in the source
STAT 2 protein [7] = molecular target: T3, STAT 2 protein; remark: listed apart in the source
STAT 4 protein [8] = molecular target: T4, STAT 4 protein; remark: listed apart in the source

B1: anti-STAT3 VHH13 (SEQ ID NO:3) sdAb (VHH)
VHH: HVQLVESGGGSVQAGGSLRLSCAASGANGGRSCMGWFRQVPGKEREGVSGISTGGLITYYADSVKGRFTISQDNTKNTLYLQMNSLKPEDTAMYYCATSRFDCYRGSWFNRYMYNSWGQGTQVTVSS
- Mean OD450 (STAT 5a protein [1]): 2.73 OD450
- Mean OD450 (STAT 3 protein [2]): 2.76 OD450
- Mean OD450 (STAT 2 protein [3]): 1.85 OD450
- Mean OD450 (STAT 4 protein [4]): 3.14 OD450
- Mean OD450 (STAT 1 protein): 3.16 OD450
- Mean OD450 (STAT 5a protein [5]): 3.32 OD450
- Mean OD450 (STAT 3 protein [6]): 3.67 OD450
- Mean OD450 (STAT 2 protein [7]): 3.34 OD450
- Mean OD450 (STAT 4 protein [8]): 3.67 OD450
